According to IntAct's records for PubMed 35512704:

B1: Speckle-type POZ protein (Homo sapiens), O43791 (parent)
chain: MSRVPSPPPPAEMSSGPVAESWCYTQIKVVKFSYMWTINNFSFCREEMGEVIKSSTFSSGANDKLKWCLRVNPKGLDEESKDYLSLYLLLVSCPKSEVRAKFKFSILNAKGEETKAMESQRAYRFVQGKDWGFKKFIRRDFLLDEANGLLPDDKLTLFCEVSVVQDSVNISGQNTMNMVKVPECRLADELGGLWENSRFTDCCLCVAGQEFQAHKAILAARSPVFSAMFEHEMEESKKNRVEINDVEPEVFKEMMCFIYTGKAPNLDKMADDLLAAADKYALERLKVMCEDALCSNLSVENAAEILILADLHSADQLKTQAVDFINYHASDVLETSGWKSMVVSHPHLVAEAYRSLASAQCPFLGPPRKRLKQS
partner: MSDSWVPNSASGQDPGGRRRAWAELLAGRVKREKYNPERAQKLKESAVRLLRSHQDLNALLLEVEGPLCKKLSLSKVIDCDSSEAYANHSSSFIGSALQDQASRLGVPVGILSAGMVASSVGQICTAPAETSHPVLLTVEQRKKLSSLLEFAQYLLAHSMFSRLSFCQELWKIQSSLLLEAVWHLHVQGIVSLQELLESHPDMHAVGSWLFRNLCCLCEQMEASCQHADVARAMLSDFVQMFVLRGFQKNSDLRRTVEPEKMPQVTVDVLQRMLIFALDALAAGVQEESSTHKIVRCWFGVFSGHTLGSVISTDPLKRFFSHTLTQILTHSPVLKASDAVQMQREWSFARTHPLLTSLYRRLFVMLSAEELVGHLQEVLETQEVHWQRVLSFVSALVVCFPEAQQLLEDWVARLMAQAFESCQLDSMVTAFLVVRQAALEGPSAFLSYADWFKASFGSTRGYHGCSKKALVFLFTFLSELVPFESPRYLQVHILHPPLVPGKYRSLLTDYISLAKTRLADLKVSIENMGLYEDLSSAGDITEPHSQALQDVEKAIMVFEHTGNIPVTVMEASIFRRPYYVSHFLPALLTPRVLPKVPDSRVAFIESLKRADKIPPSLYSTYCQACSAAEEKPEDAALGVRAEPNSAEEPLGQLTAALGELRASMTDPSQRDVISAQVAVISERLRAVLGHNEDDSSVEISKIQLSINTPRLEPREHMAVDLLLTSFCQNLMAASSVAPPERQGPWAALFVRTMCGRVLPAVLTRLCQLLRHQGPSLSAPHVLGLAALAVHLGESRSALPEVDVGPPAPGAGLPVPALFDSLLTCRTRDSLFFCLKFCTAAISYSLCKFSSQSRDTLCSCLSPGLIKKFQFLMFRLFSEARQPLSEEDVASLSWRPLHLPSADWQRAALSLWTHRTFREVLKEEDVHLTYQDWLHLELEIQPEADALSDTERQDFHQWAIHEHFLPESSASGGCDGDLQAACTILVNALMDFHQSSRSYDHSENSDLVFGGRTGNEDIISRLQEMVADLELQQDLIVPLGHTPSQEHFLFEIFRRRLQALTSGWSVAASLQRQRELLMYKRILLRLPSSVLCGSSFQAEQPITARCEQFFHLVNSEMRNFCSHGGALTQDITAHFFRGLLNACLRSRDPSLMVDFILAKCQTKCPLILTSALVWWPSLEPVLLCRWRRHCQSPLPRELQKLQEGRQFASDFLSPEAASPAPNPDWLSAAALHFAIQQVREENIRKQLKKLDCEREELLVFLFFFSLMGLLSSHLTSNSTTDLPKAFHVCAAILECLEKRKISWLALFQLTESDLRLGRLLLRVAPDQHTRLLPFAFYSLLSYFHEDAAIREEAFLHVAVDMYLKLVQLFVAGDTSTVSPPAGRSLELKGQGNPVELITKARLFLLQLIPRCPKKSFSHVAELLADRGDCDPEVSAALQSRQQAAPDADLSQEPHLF
B2: Speckle-type POZ protein (Homo sapiens), O43791 (parent)
chain: B1 chain
partner: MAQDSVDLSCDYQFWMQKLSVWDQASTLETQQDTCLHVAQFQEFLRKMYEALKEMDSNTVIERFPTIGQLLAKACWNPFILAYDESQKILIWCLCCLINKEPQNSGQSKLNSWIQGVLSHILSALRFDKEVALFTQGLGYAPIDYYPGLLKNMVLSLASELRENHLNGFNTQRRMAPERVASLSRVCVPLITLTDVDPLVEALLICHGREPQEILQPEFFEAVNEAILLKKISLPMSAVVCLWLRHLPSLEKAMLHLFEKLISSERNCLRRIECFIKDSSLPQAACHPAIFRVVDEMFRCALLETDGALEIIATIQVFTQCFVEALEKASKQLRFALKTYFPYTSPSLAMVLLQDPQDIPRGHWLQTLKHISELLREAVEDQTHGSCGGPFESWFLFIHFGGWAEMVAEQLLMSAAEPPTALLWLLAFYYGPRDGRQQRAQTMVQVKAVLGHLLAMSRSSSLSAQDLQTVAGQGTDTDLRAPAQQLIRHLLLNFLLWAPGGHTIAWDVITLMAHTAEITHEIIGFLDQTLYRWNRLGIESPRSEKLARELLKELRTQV
B3: Speckle-type POZ protein (Homo sapiens), O43791 (parent)
chain: B1 chain
partner: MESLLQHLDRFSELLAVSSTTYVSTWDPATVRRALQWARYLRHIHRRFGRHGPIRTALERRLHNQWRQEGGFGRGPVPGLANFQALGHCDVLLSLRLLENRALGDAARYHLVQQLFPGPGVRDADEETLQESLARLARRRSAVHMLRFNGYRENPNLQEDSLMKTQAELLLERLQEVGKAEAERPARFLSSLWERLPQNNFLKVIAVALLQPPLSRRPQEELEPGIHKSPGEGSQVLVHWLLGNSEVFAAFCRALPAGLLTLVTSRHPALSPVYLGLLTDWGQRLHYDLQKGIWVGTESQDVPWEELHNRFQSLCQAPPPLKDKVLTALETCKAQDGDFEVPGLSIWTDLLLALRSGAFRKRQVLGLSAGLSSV
B4: Speckle-type POZ protein (Homo sapiens), O43791 (parent)
chain: B1 chain
partner: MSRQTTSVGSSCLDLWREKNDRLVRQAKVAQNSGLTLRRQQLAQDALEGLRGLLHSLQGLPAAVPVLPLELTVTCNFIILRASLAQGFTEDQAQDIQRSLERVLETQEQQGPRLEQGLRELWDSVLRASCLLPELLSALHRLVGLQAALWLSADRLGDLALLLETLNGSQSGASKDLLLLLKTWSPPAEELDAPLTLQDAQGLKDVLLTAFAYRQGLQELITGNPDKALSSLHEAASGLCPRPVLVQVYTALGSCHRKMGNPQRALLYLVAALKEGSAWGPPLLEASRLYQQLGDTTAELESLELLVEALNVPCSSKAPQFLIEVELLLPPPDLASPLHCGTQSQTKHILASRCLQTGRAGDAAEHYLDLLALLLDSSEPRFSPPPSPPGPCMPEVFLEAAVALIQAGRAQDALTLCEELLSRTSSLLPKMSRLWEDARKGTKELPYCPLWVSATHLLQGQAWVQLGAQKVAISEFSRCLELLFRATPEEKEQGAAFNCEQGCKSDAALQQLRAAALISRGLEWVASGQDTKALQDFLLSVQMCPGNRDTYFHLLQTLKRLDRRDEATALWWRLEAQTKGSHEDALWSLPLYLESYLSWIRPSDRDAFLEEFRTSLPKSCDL

Variants of: B1
Settings: with fanca_human FANCA
With Y87C the “effect of a mutation on the interaction” value was “with no effect”.

Variants of: B2
Settings: with fancc_human FANCC
For F102C, the “effect of a mutation on the interaction” value was “with no effect”.

Variants of: B2
Settings: with fancc_human FANCC
Remark: another data set of the same source
In the case of F133L, the “effect of a mutation on the interaction” value is reported as “with no effect”.

Variants of: B2
Settings: with fancc_human FANCC
Remark: another data set of the same source
In the case of Y87C, the “effect of a mutation on the interaction” value is reported as “with no effect”.

Variants of: B2
Settings: with fancc_human FANCC
Remark: another data set of the same source
With F133V the “effect of a mutation on the interaction” value was “with no effect”.

Variants of: B3
Settings: with fancf_human FANCF
For F102C, the “effect of a mutation on the interaction” value was “with no effect”.

Variants of: B3
Settings: with fancf_human FANCF
Remark: another data set of the same source
In the case of F133L, the “effect of a mutation on the interaction” value is reported as “with no effect”.

Variants of: B3
Settings: with fancf_human FANCF
Remark: another data set of the same source
For F133V, the “effect of a mutation on the interaction” value was “with no effect”.

Variants of: B3
Settings: with fancf_human FANCF
Remark: another data set of the same source
Y87C was tested, and the “effect of a mutation on the interaction” value was “causing an interaction”.

Variants of: B4
Settings: with fancg_human FANCG
For F102C, the “effect of a mutation on the interaction” value was “with no effect”.

Variants of: B4
Settings: with fancg_human FANCG
Remark: another data set of the same source
In the case of F133L, the “effect of a mutation on the interaction” value is reported as “with no effect”.

Variants of: B4
Settings: with fancg_human FANCG
Remark: another data set of the same source
Y87C was tested, and the “effect of a mutation on the interaction” value was “with no effect”.
